What was measured:
[1] = target: T1, serotransferrin (human, UniProt P02787 20-698); experiment: 2-D gel / western blot of patient sera
T1 construct: Protein from patient sera on a denaturing 2-D blot; also called Serrotransferrin
Experimental: (§1) Serum was prepared from 5 ml of blood collected by venipuncture (with tourniquet) in standard B & D 13×100 (7 ml) vacutainer clot tubes (or equivalent) with or without hemoguard closure. After approximately 30 min at room temperature to allow for clotting, the clot was pelleted by centrifugation for 5 to 10 min at 2,500 to 3,000 rpm. Clot-free serum was decanted into a clean tube, labeled and analyzed fresh or stored frozen.
(§2) For western blot analysis, 30 μl of sera was added to 120 μl of Rehydration Buffer (7 M urea, 2 M thiourea, 2% (w/v) CHAPS [(3-[(3-cholamidopropyl)dimethylammonio]-1-propane-sulfonate), a nondenaturing zwitterionic detergent], 0.5% (w/v) ASB-14 (amidosulfobetaine-14, a zwitterionic detergent), 0.5% (v/v) ampholytes pH 3-10 (Bio-Rad), 0.5% (v/v) immobilized pH gradient (IPG) buffer pH 3-10 (Amersham-Pharmacia Biotech) and 65 mM dithiothreitol). The samples were quickly vortexed to mix sera with Rehydration Buffer. Four to six mg of protein were loaded for analysis. The samples were electrophoresed in the first dimension by using a commercial flatbed electrophoresis system (Ettan IPGphor 3, Amersham-Pharmacia Biotech) with IPG dry strips (Amersham). A linear pH range of 3 to 10 on 7 cm IPG strips was used. The IPG strips were rehydrated with the samples overnight at room temperature. […]

[2] = target: T2, serum albumin (human, UniProt P02768 25-609); experiment: 2-D gel electrophoresis / western blot of patient sera
T2 construct: Protein from patient sera on a denaturing 2-D blot; also called Ab
Experimental: as §1, §2

T2 sequence (P02768 25-609 limits assumed): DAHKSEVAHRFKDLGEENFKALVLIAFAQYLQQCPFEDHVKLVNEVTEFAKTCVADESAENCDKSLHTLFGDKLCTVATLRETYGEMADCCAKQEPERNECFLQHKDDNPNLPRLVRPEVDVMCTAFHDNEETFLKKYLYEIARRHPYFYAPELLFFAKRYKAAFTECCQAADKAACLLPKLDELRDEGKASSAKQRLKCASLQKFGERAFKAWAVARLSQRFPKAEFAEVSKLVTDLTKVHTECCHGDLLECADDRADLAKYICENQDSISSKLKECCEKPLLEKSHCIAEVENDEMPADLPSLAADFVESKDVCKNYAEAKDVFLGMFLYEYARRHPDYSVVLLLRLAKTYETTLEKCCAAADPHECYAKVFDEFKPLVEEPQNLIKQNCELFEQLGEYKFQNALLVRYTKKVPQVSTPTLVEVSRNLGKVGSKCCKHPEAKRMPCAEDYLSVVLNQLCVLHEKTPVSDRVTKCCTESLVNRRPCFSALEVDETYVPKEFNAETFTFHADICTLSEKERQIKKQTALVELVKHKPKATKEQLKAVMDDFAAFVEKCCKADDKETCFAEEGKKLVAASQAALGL
T1 sequence (P02787 20-698 limits assumed): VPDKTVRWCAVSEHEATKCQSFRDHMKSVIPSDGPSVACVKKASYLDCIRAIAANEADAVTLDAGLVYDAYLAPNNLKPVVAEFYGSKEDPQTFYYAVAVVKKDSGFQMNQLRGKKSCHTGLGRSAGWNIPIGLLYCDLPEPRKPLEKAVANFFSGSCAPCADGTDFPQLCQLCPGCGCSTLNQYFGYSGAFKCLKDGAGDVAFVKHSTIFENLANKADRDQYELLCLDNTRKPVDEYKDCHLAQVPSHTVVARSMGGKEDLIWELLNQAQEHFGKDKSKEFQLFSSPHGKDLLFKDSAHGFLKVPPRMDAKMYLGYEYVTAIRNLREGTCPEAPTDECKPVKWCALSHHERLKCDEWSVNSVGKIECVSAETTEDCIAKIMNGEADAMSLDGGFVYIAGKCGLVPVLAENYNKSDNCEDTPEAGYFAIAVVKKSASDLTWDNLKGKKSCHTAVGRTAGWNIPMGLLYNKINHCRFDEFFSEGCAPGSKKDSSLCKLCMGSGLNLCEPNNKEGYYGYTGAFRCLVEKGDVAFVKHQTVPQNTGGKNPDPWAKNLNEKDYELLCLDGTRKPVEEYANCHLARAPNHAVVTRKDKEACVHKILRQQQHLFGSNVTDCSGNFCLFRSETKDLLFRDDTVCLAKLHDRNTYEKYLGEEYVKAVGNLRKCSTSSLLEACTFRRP

B1: recombinant anti-ENOX2 single chain variable region antibody carrying an S-tag, ScFv(S) (scFv)
scFv: EVKLQESGTEVVKPGASVKLSCKASGYIFTSYDIDWVRQTPEQGLEWIGWIFPGEGSTEYNEKFKGRATLSVDKSSSTAYMELTRLTSEDSAVYFCARGDYYRRYFDLWGQGTTVTVSSGGGGSGGGGSGGGGSENVLTQSPAIMSASPGERVTMTCSASSSIRYIYWYQQKPGSSPRLLIYDTSNVAPGVPFRFSGSGSGTSYSLTINRMEAEDAATYYCQEWSGYPYTFGGGTKLELKAKETAAAKFERQHMDS
notes: Derived from the hybridoma that makes the ENOX2-specific monoclonal antibody; also called pan ENOX2 recombinant scFv antibody; recombinant anti-ECTO-NOX antibody (single chain variable region ScFv)
- binding result [1]: binds
- binding result [2]: no binding

Source: patent publication US20170030918A1 (MOR NUCO ENTERPRISES, published 2017)
